The results in this text go back to paper PMC9639781.

The target in the experiment is ATP synthase (endogenous, mouse cardiomyocytes) (mouse (endogenous in mouse neonatal cardiomyocytes)) (UniProt P56480). In words: native gel or EMSA. (In general: In EMSA bound probe runs differently from free probe, usually more slowly.)

With “ATP synthase (endogenous, mouse cardiomyocytes) (from UniProt P56480 47-529; Q9DCX2 1-161; Q9DB20 24-213; Q9CQQ7 43-256) (complex)”, the stoichiometry N was determined as 2.

Usually stoichiometry N stands for a count of units in the complex or per binding partner.
